Reference: US20100209956A1
Substitutions are numbered along the chain they refer to. Names may count otherwise.

B1: soluble form of HAI-2 (sHAI-2), extracellular domain Ala28-Lys197 with a C-terminal His8 tag with a Gly spacer (protein, human, not shown: small tags and cut ends)
chain: ADRERSIHDFCLVSKVVGRCRASMPRWWYNVTDGSCQLFVYGGCDGNSNNYLTKEECLKKCATVTENATGDLATSRNAADSSVPSAPRRQDSEDHSSDMFNYEEYCTANAVTGPCRASFPRWYFDVERNSCNNFIYGGCRGNKNSYRSEEACMLRCFRQQENPPLPLGSKHHHHHHHH
B2: sHAI-1B(K401A) (protein, UniProt O43278 36-465, looked up)
chain: GPPPAPPGLPAGADCLNSFTAGVPGFVLDTNASVSNGATFLESPTVRRGWDCVRACCTTQNCNLALVELQPDRGEDAIAACFLINCLYEQNFVCKFAPREGFINYLTREVYRSYRQLRTQGFGGSGIPKAWAGIDLKVQPQEPLVLKDVENTDWRLLRGDTDVRVERKDPNQVELWGLKEGTYLFQLTVTSSDHPEDTANVTVTVLSTKQTEDYCLASNKVGRCRGSFPRWYYDPTEQICKSFVYGGCLGNKNNYLREEECILACRGVQGGPLRGSSGAQATFPQGPSMERRHPVCSGTCQPTQFRCSNGCCIDSFLECDDTPNCPDASDEAACEKYTSGFDELQRIHFPSDKGHCVDLPDTGLCAESIPRWYYNPFSEHCARFTYGGCYGNKNNFEEEQQCLESCRGISKKDVFGLRREIPIPSTGSVE
B3: sHAI-1B(R260A) (protein, UniProt O43278 36-465, looked up)
chain: B2 chain with R225A, A366K

Biological target: soluble form of hepsin encompassing the entire extracellular domain (Arg45-Leu417) and a C-terminal His8 tag (human) (UniProt P05981)
Assay: cell-based or functional assay

soluble form of hepsin encompassing the entire extracellular domain (Arg45-Leu417) and a C-terminal His8 tag (human), sequence (P05981 45-162 limits assumed, chain 1 of 2): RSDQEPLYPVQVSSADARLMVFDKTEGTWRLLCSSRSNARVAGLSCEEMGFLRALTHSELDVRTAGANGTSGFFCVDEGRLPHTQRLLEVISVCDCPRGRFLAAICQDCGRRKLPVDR
soluble form of hepsin encompassing the entire extracellular domain (Arg45-Leu417) and a C-terminal His8 tag (human), sequence (P05981 other isoform, or with tags, fused parts or gaps limits assumed, chain 2 of 2): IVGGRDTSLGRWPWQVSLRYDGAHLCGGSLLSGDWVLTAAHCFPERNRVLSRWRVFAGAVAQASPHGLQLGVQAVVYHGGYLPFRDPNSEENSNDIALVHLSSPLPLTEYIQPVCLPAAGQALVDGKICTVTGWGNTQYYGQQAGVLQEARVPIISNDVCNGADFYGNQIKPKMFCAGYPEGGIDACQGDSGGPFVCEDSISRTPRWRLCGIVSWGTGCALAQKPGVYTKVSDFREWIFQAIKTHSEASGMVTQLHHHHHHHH

| Binder | IC50, inhibition of hepsin enzymatic activity towards S2366 (amidolytic assay) [µM] | activity in amidolytic assays as percent of wildtype and KD2 mutant [%] | fold reduction of inhibitory activity against wildtype sHAI-1B (amidolytic assay) [fold] |
| --- | --- | --- | --- |
| B1 | 0.0013 |  |  |
| B2 | 0.0182 |  |  |
| B3 | > 1 | < 1 | > 47 |
